From IntAct's records for PubMed 35512704 come the findings set out here.

To fix the notation:
B1: Mothers against decapentaplegic homolog 4 (Homo sapiens), Q13485 (parent)
chain: MDNMSITNTPTSNDACLSIVHSLMCHRQGGESETFAKRAIESLVKKLKEKKDELDSLITAITTNGAHPSKCVTIQRTLDGRLQVAGRKGFPHVIYARLWRWPDLHKNELKHVKYCQYAFDLKCDSVCVNPYHYERVVSPGIDLSGLTLQSNAPSSMMVKDEYVHDFEGQPSLSTEGHSIQTIQHPPSNRASTETYSTPALLAPSESNATSTANFPNIPVASTSQPASILGGSHSEGLLQIASGPQPGQQQNGFTGQPATYHHNSTTTWTGSRTAPYTPNLPHHQNGHLQHHPPMPPHPGHYWPVHNELAFQPPISNHPAPEYWCSIAYFEMDVQVGETFKVPSSCPIVTVDGYVDPSGGDRFCLGQLSNVHRTEAIERARLHIGKGVQLECKGEGDVWVRCLSDHAVFVQSYYLDREAGRAPGDAVHKIYPSAYIKVFDLRQCHRQMQQQAATAQAAAAAQAAAVAGNIPGPGSVGGIAPAISLSAAAGIGVDDLRRLCILRMSFVKGWGPDYPRQSIKETPCWIEIHLHRALQLLDEVLHTMPIADPQPLD
partner: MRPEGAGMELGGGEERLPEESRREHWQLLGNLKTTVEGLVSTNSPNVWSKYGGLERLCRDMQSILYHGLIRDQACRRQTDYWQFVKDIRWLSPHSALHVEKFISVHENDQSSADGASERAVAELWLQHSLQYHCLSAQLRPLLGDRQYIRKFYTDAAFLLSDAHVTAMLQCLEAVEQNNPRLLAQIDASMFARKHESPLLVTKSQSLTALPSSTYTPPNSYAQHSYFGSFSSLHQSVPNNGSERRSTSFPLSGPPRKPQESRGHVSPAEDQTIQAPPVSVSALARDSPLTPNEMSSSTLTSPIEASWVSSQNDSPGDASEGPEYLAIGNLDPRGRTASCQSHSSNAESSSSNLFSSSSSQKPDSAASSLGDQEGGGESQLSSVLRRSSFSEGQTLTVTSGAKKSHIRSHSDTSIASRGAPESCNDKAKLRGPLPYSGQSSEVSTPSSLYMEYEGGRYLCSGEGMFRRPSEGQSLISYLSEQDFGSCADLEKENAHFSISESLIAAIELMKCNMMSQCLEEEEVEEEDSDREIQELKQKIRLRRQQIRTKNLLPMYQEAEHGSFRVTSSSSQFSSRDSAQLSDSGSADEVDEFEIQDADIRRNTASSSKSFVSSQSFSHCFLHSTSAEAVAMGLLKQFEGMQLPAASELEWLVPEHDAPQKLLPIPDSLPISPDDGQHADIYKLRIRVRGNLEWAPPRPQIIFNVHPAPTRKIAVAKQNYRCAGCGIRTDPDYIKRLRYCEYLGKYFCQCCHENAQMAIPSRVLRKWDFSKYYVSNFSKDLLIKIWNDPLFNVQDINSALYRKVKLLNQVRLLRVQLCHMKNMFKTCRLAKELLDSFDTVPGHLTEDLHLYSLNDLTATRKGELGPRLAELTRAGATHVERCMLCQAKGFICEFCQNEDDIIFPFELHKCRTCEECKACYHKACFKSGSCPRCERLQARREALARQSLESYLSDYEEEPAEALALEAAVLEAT
B2: Mothers against decapentaplegic homolog 4 (Homo sapiens), Q13485 (parent)
chain: B1 chain
partner: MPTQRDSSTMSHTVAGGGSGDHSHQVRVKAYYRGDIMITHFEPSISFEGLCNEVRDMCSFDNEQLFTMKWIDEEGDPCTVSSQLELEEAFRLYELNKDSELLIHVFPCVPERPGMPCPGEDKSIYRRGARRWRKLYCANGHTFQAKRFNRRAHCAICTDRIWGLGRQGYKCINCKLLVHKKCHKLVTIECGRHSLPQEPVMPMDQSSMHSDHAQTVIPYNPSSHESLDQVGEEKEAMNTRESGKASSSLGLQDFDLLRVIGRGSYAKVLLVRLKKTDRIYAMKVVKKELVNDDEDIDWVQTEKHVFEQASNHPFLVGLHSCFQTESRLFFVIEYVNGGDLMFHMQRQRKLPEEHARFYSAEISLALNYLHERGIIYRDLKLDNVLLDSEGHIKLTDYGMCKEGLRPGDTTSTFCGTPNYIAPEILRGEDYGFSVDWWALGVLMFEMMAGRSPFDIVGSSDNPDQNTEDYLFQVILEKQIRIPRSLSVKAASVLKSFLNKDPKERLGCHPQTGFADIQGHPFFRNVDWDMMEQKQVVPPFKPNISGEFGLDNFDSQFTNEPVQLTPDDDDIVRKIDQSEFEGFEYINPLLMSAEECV
B3: Mothers against decapentaplegic homolog 4 (Homo sapiens), Q13485 (parent)
chain: B1 chain
partner: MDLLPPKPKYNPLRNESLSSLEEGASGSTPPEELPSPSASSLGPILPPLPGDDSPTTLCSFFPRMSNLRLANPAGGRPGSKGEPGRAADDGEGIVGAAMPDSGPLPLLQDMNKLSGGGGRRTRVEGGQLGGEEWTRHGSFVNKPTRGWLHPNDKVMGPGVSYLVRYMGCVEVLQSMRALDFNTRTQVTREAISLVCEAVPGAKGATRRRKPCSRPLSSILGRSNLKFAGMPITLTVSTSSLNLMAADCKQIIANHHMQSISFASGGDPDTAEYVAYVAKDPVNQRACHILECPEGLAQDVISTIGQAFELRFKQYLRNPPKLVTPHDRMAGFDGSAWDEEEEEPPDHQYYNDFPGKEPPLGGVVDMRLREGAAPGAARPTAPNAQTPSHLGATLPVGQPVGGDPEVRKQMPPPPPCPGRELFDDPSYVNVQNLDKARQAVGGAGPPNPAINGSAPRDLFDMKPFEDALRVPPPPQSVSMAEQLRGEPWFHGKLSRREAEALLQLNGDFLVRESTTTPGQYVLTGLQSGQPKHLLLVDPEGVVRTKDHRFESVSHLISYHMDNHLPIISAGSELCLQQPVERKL
B4: Mothers against decapentaplegic homolog 4 (Homo sapiens), Q13485 (parent)
chain: B1 chain
partner: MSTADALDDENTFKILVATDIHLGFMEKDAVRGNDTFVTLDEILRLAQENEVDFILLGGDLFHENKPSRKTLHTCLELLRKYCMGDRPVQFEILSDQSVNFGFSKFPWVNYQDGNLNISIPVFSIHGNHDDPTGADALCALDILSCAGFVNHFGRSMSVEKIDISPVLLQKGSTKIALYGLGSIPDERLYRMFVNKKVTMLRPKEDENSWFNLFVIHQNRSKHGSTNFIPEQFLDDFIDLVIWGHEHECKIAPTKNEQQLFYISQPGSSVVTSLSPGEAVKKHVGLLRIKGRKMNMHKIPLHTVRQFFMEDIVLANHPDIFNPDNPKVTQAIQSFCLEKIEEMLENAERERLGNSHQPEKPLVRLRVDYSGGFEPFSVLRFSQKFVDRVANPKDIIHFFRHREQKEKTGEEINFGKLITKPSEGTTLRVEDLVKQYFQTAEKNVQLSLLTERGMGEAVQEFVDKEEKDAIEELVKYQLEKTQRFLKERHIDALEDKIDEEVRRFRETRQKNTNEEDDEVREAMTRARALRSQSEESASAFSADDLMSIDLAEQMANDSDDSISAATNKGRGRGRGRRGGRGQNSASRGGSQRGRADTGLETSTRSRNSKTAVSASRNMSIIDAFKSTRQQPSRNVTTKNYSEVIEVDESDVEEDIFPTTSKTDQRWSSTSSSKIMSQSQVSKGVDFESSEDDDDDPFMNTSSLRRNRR

The variants in the first test derive from B1. As to conditions: with rubic_human RUBCN.
In the case of G386D, the “effect of a mutation on the interaction” value is “with no effect”.

In another test the parent is B1. As to conditions: with rubic_human RUBCN. The source holds these as a separate data set.
As to D351H, the “effect of a mutation on the interaction” value was “with no effect”.

Another test covers variants of B2. As to conditions: with kpci_human PRKCI.
For D351H, the “effect of a mutation on the interaction” value is reported as “with no effect”.

In a further test the parent is B2. Particulars: with kpci_human PRKCI. The source holds these as a separate data set.
In the case of R361H, the “effect of a mutation on the interaction” value was “with no effect”.

In another test the parent is B3. As to conditions: with shc1_human SHC1, P29353.
Consider D351H, for which the “effect of a mutation on the interaction” value is reported as “with no effect”.

The variants in a further test derive from B3. Particulars: with shc1_human SHC1, P29353. This is another data set of the same source.
For the variant R361H, the “effect of a mutation on the interaction” value is given as “with no effect”.

Variants of B3 are the subject of another test. As to conditions: with shc1_human SHC1, P29353. The source holds these as a separate data set.
As for R361C, the “effect of a mutation on the interaction” value was “with no effect”.

Variants of B3 are the subject of another test. As to conditions: with shc1_human SHC1, P29353. The source holds these as a separate data set.
Take G386D: the “effect of a mutation on the interaction” value is listed as “with no effect”.

The variants in another test derive from B4. Particulars: with mre11_human MRE11, P49959.
As to R361H, the “effect of a mutation on the interaction” value was “with no effect”.

Variants of B4 are the subject of the next test. Particulars: with mre11_human MRE11, P49959. This is another data set of the same source.
For R361C, the “effect of a mutation on the interaction” value is “with no effect”.

Variants of B4 are the subject of the next test. Particulars: with mre11_human MRE11, P49959. This is another data set of the same source.
On to D351H, for which the “effect of a mutation on the interaction” value is listed as “with no effect”.
